pKd: −log10 of the molar value.
What was measured:
[1] = biological target: Hyper-IL-6 (Homo sapiens) (UniProt P05231); details: cited from earlier work
IL-11:sIL-11R complex = IL-11:sIL-11R complex (UniProt P20809)
IL-6:sIL-6R complex = IL-6:sIL-6R complex (UniProt P05231)
Chain of IL-6:sIL-6R complex (P05231 30-212, chain 1 of 2): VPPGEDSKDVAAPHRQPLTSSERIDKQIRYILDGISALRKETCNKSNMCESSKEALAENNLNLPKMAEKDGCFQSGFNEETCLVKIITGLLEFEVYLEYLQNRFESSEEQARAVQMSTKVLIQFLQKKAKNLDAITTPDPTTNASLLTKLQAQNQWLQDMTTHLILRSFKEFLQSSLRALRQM
Chain of IL-6:sIL-6R complex (P08887 20-365, chain 2 of 2, further chain): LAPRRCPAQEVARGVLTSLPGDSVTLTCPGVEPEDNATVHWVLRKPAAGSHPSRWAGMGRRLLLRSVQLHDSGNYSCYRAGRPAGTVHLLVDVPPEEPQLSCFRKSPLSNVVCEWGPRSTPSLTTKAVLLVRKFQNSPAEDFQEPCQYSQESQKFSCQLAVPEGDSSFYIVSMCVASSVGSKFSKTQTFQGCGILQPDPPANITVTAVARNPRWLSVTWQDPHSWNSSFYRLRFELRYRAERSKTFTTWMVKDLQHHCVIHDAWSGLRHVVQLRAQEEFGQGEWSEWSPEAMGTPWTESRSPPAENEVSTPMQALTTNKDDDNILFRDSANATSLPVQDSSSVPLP

Chain of sgp130Fc (P40189 23-619): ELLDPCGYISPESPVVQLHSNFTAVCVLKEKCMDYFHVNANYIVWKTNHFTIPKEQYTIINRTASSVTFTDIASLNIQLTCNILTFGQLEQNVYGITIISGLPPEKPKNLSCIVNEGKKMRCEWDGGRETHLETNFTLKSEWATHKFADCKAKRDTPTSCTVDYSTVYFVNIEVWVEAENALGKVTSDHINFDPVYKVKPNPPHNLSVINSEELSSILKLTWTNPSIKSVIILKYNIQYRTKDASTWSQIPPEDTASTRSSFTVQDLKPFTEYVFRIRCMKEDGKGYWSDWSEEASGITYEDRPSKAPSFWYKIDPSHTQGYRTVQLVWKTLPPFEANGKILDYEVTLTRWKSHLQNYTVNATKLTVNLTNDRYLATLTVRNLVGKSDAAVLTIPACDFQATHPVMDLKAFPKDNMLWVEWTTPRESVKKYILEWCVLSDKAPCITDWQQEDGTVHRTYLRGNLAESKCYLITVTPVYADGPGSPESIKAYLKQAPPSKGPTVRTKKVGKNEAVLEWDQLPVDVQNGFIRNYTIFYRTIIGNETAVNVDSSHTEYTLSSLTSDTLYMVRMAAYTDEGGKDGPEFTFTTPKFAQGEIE
Chain of IL-11:sIL-11R complex (P20809 22-199, chain 1 of 2): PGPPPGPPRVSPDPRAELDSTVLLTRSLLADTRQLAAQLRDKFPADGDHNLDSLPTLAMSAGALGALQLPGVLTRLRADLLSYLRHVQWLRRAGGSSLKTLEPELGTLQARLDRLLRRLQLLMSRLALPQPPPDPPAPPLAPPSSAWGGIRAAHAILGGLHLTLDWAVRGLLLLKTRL
Chain of IL-11:sIL-11R complex (Q14626 24-370, chain 2 of 2, further chain): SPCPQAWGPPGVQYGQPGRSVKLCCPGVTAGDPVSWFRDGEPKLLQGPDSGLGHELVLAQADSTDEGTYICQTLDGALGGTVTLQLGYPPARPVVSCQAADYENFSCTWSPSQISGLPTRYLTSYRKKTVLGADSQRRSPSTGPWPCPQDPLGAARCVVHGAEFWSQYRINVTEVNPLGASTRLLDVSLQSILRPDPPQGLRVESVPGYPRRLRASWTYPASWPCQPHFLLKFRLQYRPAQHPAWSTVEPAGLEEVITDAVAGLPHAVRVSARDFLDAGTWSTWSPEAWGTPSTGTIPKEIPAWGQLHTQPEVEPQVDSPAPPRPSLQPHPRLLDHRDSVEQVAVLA
Chain of sgp130^R281QFc (P40189 23-619 R281Q): as the sequence (P40189 23-619) above, with R259Q counted along it
Chain of Hyper-IL-6 (Homo sapiens) (P05231 30-212, chain 1 of 2): as the sequence (P05231 30-212, chain 1 of 2) above
Chain of Hyper-IL-6 (Homo sapiens) (partner, as listed by the source, chain 2 of 2): as the sequence (P08887 20-365, chain 2 of 2, further chain) above

For sgp130FlyFc ECD (from UniProt P40189), the pKd [1] is listed as 9.91.

In the case of “sgp130Fc (from UniProt P40189 23-619) (Fc fusion)”, the IC50 of inhibition of sIL-11R/IL-11 (10/100 ng/ml) induced proliferation of Ba/F3-gp130 cells (blocks the complex from membrane-bound gp130) (IL-11:sIL-11R complex) was 0.29 nM and the IC50 of inhibition of IL-6/sIL-6R (50/100 ng/ml) induced proliferation of Ba/F3-gp130 cells (blocks the complex from membrane-bound gp130) (IL-6:sIL-6R complex) was 0.45 nM.

With “sgp130^R281QFc (from UniProt P40189 23-619) (Fc fusion)” the IC50 of inhibition of sIL-6R/IL-6 (50/100 ng/ml) induced proliferation of Ba/F3-gp130 cells (blocks the complex from membrane-bound gp130) (IL-6:sIL-6R complex) was 0.78 nM.

From paper PMC8649222
